From IntAct's records for PubMed 21293379 come the findings set out here.

B1: Histone-lysine N-methyltransferase NSD2 (Homo sapiens), O96028-1 (parent)
chain: MEFSIKQSPLSVQSVVKCIKMKQAPEILGSANGKTPSCEVNRECSVFLSKAQLSSSLQEGVMQKFNGHDALPFIPADKLKDLTSRVFNGEPGAHDAKLRFESQEMKGIGTPPNTTPIKNGSPEIKLKITKTYMNGKPLFESSICGDSAADVSQSEENGQKPENKARRNRKRSIKYDSLLEQGLVEAALVSKISSPSDKKIPAKKESCPNTGRDKDHLLKYNVGDLVWSKVSGYPWWPCMVSADPLLHSYTKLKGQKKSARQYHVQFFGDAPERAWIFEKSLVAFEGEGQFEKLCQESAKQAPTKAEKIKLLKPISGKLRAQWEMGIVQAEEAASMSVEERKAKFTFLYVGDQLHLNPQVAKEAGIAAESLGEMAESSGVSEEAAENPKSVREECIPMKRRRRAKLCSSAETLESHPDIGKSTPQKTAEADPRRGVGSPPGRKKTTVSMPRSRKGDAASQFLVFCQKHRDEVVAEHPDASGEEIEELLRSQWSLLSEKQRARYNTKFALVAPVQAEEDSGNVNGKKRNHTKRIQDPTEDAEAEDTPRKRLRTDKHSLRKRDTITDKTARTSSYKAMEAASSLKSQAATKNLSDACKPLKKRNRASTAASSALGFSKSSSPSASLTENEVSDSPGDEPSESPYESADETQTEVSVSSKKSERGVTAKKEYVCQLCEKPGSLLLCEGPCCGAFHLACLGLSRRPEGRFTCSECASGIHSCFVCKESKTDVKRCVVTQCGKFYHEACVKKYPLTVFESRGFRCPLHSCVSCHASNPSNPRPSKGKMMRCVRCPVAYHSGDACLAAGCSVIASNSIICTAHFTARKGKRHHAHVNVSWCFVCSKGGSLLCCESCPAAFHPDCLNIEMPDGSWFCNDCRAGKKLHFQDIIWVKLGNYRWWPAEVCHPKNVPPNIQKMKHEIGEFPVFFFGSKDYYWTHQARVFPYMEGDRGSRYQGVRGIGRVFKNALQEAEARFREIKLQREARETQESERKPPPYKHIKVNKPYGKVQIYTADISEIPKCNCKPTDENPCGFDSECLNRMLMFECHPQVCPAGEFCQNQCFTKRQYPETKIIKTDGKGWGLVAKRDIRKGEFVNEYVGELIDEEECMARIKHAHENDITHFYMLTIDKDRIIDAGPKGNYSRFMNHSCQPNCETLKWTVNGDTRVGLFAVCDIPAGTELTFNYNLDCLGNEKTVCRCGASNCSGFLGDRPKTSTTLSSEEKGKKTKKKTRRRRAKGEGKRQSEDECFRCGDGGQLVLCDRKFCTKAYHLSCLGLGKRPFGKWECPWHHCDVCGKPSTSFCHLCPNSFCKEHQDGTAFSCTPDGRSYCCEHDLGAASVRSTKTEKPPPEPGKPKGKRRRRRGWRRVTEGK

The assay covers variants of B1. The conditions noted are these: with mdc1_human MDC1, Q14676.
Sequence of mdc1_human MDC1, Q14676 (Q14676 whole entry): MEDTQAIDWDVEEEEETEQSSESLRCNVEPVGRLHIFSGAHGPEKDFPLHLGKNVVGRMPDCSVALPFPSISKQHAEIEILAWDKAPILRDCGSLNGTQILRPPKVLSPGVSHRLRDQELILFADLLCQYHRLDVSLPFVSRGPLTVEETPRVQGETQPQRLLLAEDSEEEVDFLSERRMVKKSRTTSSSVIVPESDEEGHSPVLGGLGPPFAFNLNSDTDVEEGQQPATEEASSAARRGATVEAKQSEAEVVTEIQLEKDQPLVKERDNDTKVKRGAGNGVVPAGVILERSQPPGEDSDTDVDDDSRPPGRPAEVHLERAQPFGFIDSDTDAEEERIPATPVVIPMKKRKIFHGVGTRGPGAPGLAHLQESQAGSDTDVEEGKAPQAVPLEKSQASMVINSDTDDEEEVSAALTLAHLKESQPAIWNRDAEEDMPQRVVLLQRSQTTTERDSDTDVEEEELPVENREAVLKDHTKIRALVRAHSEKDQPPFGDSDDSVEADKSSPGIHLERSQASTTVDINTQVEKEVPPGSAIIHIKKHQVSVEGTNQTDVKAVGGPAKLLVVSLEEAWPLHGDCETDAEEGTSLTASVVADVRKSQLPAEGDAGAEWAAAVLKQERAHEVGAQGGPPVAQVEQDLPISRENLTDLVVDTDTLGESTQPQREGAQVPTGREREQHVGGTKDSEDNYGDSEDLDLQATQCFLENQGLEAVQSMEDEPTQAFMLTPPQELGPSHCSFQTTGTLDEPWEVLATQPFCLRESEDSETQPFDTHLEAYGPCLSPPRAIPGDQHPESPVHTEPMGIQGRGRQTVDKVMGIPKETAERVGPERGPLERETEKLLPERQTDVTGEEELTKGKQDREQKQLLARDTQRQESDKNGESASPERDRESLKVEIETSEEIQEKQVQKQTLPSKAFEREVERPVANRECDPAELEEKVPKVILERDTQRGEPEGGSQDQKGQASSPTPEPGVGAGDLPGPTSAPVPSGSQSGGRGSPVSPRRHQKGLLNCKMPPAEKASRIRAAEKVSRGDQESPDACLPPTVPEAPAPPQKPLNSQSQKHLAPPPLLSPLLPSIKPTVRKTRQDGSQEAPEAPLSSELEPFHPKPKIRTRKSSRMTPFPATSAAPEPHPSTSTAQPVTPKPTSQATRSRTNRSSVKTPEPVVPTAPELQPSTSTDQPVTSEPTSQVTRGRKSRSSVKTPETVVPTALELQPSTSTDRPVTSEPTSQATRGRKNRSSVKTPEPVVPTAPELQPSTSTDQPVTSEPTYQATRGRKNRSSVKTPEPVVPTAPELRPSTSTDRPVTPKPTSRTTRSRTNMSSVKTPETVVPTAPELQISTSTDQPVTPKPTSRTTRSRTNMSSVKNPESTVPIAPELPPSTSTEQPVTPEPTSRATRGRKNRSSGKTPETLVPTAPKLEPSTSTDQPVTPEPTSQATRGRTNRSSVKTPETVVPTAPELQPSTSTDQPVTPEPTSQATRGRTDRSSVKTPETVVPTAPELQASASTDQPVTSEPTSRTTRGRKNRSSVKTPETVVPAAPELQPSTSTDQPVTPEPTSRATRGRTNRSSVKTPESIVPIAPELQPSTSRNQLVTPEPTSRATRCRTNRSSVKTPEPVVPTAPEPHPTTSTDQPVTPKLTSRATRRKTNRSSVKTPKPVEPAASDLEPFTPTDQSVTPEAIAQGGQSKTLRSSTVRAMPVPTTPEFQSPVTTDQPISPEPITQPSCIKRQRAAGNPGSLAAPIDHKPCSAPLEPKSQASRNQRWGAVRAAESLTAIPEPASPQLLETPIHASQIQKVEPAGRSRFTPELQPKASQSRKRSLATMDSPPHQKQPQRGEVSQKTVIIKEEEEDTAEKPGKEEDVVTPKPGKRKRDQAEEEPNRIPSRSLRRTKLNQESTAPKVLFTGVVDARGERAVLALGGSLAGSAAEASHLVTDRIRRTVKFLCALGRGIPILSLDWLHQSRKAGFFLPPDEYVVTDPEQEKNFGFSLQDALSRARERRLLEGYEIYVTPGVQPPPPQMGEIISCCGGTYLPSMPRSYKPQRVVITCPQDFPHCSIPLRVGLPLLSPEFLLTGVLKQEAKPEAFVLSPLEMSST
As to S102A, the “effect of a mutation on the interaction” value is recorded as “disrupting interaction”.
